{"source": "patent US7595158B2", "about": "“Bcl2L12 polypeptide activators and inhibitors” (Dana-Farber Cancer Institute, Inc., priority 2003, dated 2009)", "key": {"[1]": {"tested_on": "Ink4a-/-/Arf-/- astrocytes", "assay": "Annexin V staining of STS-treated Ink4a/Arf deficient astrocytes (FACS)", "assay_type": "cell-based, mouse", "experimental": "The following experiments were performed to determine whether the Bcl2L12 polypeptide influenced cell survival or apoptosis. Ink4a^−/−/Arf^−/− astrocytes retro-virally infected with vector alone (pBabe) or vector containing Bcl2 nucleic acid, Bcl2L12-V5 nucleic acid, R-RAS nucleic acid, or IRF3 nucleic acid were […] After this one day incubation, the cells were stained with annexin V (Roche). Annexin V-positive cells were determined by FACScan analysis (mean±S.D.; three independent experiments with each being performed in triplicate).\nAfter STS treatment, the cells were analyzed for apoptosis by assessing annexin V binding and DNA fragmentation using a FACS based analysis."}, "Erk1 and Erk2": {"tested_on": "Erk1 and Erk2", "assay": "Phosphorylation of Erk1/2 (p44/p42) in transfected astrocytes", "assay_type": "cell-based", "conditions": "vs control cells expressing LacZ", "experimental": "(§1) Ink4a/Arf deficient astrocytes transfected with a vector encoding either LacZ, Bcl2L12-V5, or EGFR* polypeptides were cultured for six days. Each day, the number of cells in each culture was determined. In addition, stably transfected cells were harvested and assessed for the phosphorylation of Erk1/2 (p44/p42)."}, "astrocytes": {"tested_on": "astrocytes", "assay": "Plasma membrane integrity (SYTOX Green) and LEHDase activity in STS-treated astrocytes", "assay_type": "cell-based", "conditions": "range of STS concentrations", "experimental": "To assess and quantify plasma membrane integrity, vector or Bcl2L12-V5 transfected astrocytes were treated with or without STS (500 nM) for 24 hours and stained with a combination of Hoechst (a DNA intercalating dye that enters living as well as apoptotic or necrotic cells) and SYTOX Green (a green fluorescent dye that only enters cells with a disintegrated plasma membrane). FIG. 4B is a picture of STS treated and untreated cells transfected with either a control vector (pBabe) of a vector encoding a Bcl2L12-V5 polypeptide.\nIn addition, the green cells were counted over a range of different STS concentration (FIG. 4C; bars), and caspase-9 activity was determined by quantifying LEHDase activity in the corresponding cell lysates (FIG. 4C; histogram). […] SYTOX green positive cells were also quantified using a FACS based analysis assessing the increase in green fluorescence."}, "[2]": {"tested_on": "Ink4a/Arf deficient astrocytes", "assay": "Cell growth of transfected Ink4a/Arf deficient astrocytes over six days", "assay_type": "cell-based, mouse", "conditions": "LacZ about 1.5×10^6 cells", "experimental": "as §1"}}, "data": [{"molecule": "Bcl2L12-V5: Bcl2L12 polypeptide having the V5 epitope tag, ectopically expressed from pBabe-Bcl2L12-V5 vector; human amino acid sequence 1-334 (protein, left off: small tags and cut ends) MGRPAGLFPPLCPFLGFRPEACWERHMQIERAPSVPPFLRWAGYRPGPVRRRGKVELIKFVRVQWRRPQVEWRRRRWGPGPGASMAGSEELGLREDTLRVLAAFLRRGEAAGSPVPTPPRSPAQEEPTDFLSRLRRCLPCSLGRGAAPSESPRPCSLPIRPCYGLEPGPATPDFYALVAQRLEQLVQEQLKSPPSPELQGPPSTEKEAILRRLVALLEEEAEVINQKLASDPALRSKLVRLSSDSFARLVELFCSRDDSSRPSRACPGPPPPSPEPLARLALAMELSRRVAGLGGTLAGLSVEHVHSFTPWIQAHGGWEGILAVSPVDLNLPLD", "values": [{"measurement": "annexin-V positive cells", "setting": "[1]; 100 nM staurosporine one day, control cultures about 17-22 percent", "value": "6-7%"}, {"measurement": "annexin V+/PI- cells", "setting": "[1]; 500 nM STS, pBabe about 20 percent", "value": "about 6%"}, {"measurement": "levels of Erk1 and Erk2 phosphorylation", "setting": "Erk1 and Erk2", "value": "higher"}, {"measurement": "SYTOX Green positivity", "setting": "astrocytes", "value": "significantly increased"}, {"measurement": "caspase-9 activity (LEHDase)", "setting": "astrocytes", "value": "dramatically reduced"}, {"measurement": "cell number on day 6", "setting": "[2]", "value": "about 3.8×10^6 cells"}]}]}
